Results published in patent US20240400677A1 (ELECTRA THERAPEUTICS, published 2024).
Residue numbers refer to the chain shown, from its start.

B1: Antibody 38 (scFv, V domains shown)
VH: QVQLVQSGAEVKKPGASVKVSCKASGGTFSSYDINWVRQAPGQGLEWMGWMNPNSGNTGYAQKFQGRVTMTRDTSTSTVYMELSSLRSEDTAVYYCARDLTLYCSSTSCLDAFDYWGQGTLVTVSS
VL: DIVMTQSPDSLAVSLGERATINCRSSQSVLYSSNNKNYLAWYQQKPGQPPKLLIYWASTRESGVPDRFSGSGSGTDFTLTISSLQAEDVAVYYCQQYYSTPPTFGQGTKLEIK
notes: scFv in crude PPE, V5/myc-tagged
B2: Antibody 36 (scFv, V domains shown)
VH: QVQLVQSGAEVKKPGASVKVSCKASGYTFTDNYLHWVRQAPGQGLEWMGIIETSGGSTDYAQKFQGRVTMTRDTSTSTVYMELSSLRSEDTAVYYCARSFGGYSYDDAFDIWGQGTTVTVSS
VL: DIQMTQSPSSLSASVGDRVTITCQASQGISNYLNWYQQKPGKAPKLLIYAASSLQSGVPSRFSGSGSGTDFTLTISSLQPEDFATYYCQQSYSSPYTFGQGTKVEIK
notes: as for B1
B3: Antibody 51 (scFv, V domains shown)
VH: QVQLVQSGAEVKKPGASVKVSCKASGYTFTRYDINWVRQAPGQGLEWMGWMNPNSGNTGYAQKLQGRVTMTRDTSTSTVYMELSSLRSEDTAVYYCARERVGYCSSTSCLHPLDYWGQGTLVTVSS
VL: B2 VL with Q24R, S30R, Y32D, N34G, A50S, S53N, S93D, S94V, Y96L, Q100G
notes: as for B1
B4: Antibody 48 (scFv, V domains shown)
VH: QVQLVQSGAEVKKPGASVKVSCKASGYTFTSYYMHWVRQAPGQGLEWMGWMNPNSGNTGYAQKFQGRVTMTRDTSTSTVYMELSSLRSEDTAVYYCARDQMYSSYGMDVWGQGTTVTVSS
VL: B2 VL with Q24R, Q27E, G28S, S30T, Y32W, N34A, A50K, Q55E, S93G, S94T
notes: as for B1
B5: Antibody 45 (scFv, V domains shown)
VH: QVQLVQSGAEVKKPGASVKVSCKASGYTFTSYGISWVRQAPGQGLEWMGWISAYNGNTNYAQKFQGRVTMTRDTSTSTVYMELSSLRSEDTAVYYCARGTYYDYIWGSYRYSWFDYWGQGTLVTVSS
VL: not shown
notes: as for B1
B6: Antibody 52 (scFv, V domains shown)
VH: QVQLVQSGAEVKKPGASVKVSCKASGYTFTSYDINWVRQAPGQGLEWMGWISGYNGNTNYAQKFQGRVTMTRDTSTSTVYMELSSLRSEDTAVYYCARSFDWLLLLDYWGQGTLVTVSS
VL: DIQMTQSPSSLSASVGDRVTITCRASQSISSWLAWYQQKPGKAPKLLIYDATTLESGVPSRFSGSGSGTDFTLTISSLQPEDFATYYCQQYDSYPWTFGQGTKLEIK
notes: as for B1
B7: Antibody 39 (scFv, V domains shown)
VH: QVQLVQSGAEVKKPGASVKVSCKASGGTFSNYGFSWVRQAPGQGLEWMGWMSPSSGNTGYAQKFQGRVTMTRDTSTSTVYMELSSLRSEDTAVYYCARERSGSYFDYWGQGTLVTVSS
VL: EIVMTQSPATLSVSPGERATLSCRASQSVSSYLAWYQQKPGQAPRLLIYGTSTRATGIPARFSGSGSGTEFTLTISSLQSEDFAVYYCQQYGSLPFTFGQGTRLEIK
notes: as for B1
B8: Antibody 44 (scFv, V domains shown)
VH: QVQLVQSGAEVKKPGSSVKVSCKASGGTFSKIAVSWVRQAPGQGLEWMGLINPNSGGTDYAQKFQGRVTITADESTSTAYMELSSLRSEDTAVYYCAKDFRGGDYYYYGMDVWGQGTTVTVSS
VL: B7 VL with Y32N, T51A, G92N, S93T, L94Y, F96I, R103K, L104V
notes: as for B1
B9: Antibody 53 (scFv, V domains shown)
VH: QVQLVQSGAEVKKPGASVKVSCKASGHTFNNNYIHWVRQAPGQGLEWMGIINPSGGSTSYAQKFQGRVTMTRDTSTSTVYMELSSLRSEDTAVYYCARQIQDYGYYYYGMDVWGQGTTVTVSS
VL: B7 VL with S31K, G50A, T51I, T53A, T56A, G92Y, L94S, F96P, R103K, L104V
notes: as for B1
B10: Antibody 75 (antibody, V domains shown)
VH: QVQLVQSGAEVKKPGSSVKVSCKASGGTFSNYAISWVRQAPGQGLEWMGGIIPIFGSTASYAQKFQGRVTITADESTSTAYMELSSLRSEDTAVYYCARGVGDDTLTDWGQGTLVTVSS
VL: DIVMTQSPLSLPVTPGEPASISCRSSQSLLHSNGYNYLDWYLQKPGQSPQLLIYAASSLQSGVPDRFSGSGSGTDFTLKISRVEAEDVGVYYCMQALQTPLTFGGGTKVEIK

Target: T1, cynomolgus monkey SIRPα on CHO cells (cynomolgus monkey, UniProt A0A2K5VYQ9 31-507)
T1 construct: whole, on cells; also called Cyno SIRPα CHO
T1 sequence: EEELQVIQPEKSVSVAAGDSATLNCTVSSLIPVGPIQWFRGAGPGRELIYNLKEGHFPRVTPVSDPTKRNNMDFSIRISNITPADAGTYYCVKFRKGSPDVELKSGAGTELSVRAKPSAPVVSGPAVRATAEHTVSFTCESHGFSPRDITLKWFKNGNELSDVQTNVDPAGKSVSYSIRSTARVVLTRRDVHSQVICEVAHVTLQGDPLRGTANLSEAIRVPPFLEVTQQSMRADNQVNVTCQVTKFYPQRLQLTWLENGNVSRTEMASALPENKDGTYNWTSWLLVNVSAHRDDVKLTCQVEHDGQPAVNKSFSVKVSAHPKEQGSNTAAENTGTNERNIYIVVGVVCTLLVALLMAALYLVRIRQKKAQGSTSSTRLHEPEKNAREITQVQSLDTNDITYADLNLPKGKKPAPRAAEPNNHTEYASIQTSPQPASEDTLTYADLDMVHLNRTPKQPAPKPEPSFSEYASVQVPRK
Experiment: flow cytometry

Binder	binding result
B1	no binding (tested: fold change <2.0)
B2	no binding (tested: fold change <2.0)
B3	no binding (tested: fold change <2.0)
B4	no binding (tested: fold change <2.0)
B5	no binding (tested: fold change <2.0)
B6	no binding (tested: fold change <2.0)
B7	no binding (tested: fold change <2.0)
B8	no binding (tested: fold change <2.0)
B9	no binding (tested: fold change <2.0)

Target: T2, human SIRPβ1 on CHO cells (co-transfected with DAP12) (human, UniProt O00241 30-398)
T2 construct: whole, on cells; co-transfected with DAP12; also called Human SIRPβ1 CHO
Experiment: flow cytometry

T2 sequence (O00241 30-398): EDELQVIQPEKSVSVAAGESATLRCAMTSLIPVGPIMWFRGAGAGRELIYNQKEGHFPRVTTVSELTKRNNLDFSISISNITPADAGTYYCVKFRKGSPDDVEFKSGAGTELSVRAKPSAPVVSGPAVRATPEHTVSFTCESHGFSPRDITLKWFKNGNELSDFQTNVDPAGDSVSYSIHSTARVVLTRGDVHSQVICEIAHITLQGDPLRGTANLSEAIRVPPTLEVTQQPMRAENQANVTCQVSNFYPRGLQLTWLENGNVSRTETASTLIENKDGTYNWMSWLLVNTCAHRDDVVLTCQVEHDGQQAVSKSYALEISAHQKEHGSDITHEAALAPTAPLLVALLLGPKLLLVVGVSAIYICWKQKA

Binder	binding result
B1	no binding (tested: fold change <2.0)
B2	no binding (tested: fold change <2.0)
B3	no binding (tested: fold change <2.0)
B4	no binding (tested: fold change <2.0)
B5	no binding (tested: fold change <2.0)
B6	no binding (tested: fold change <2.0)
B7	no binding (tested: fold change <2.0)
B8	no binding (tested: fold change <2.0)
B9	no binding (tested: fold change <2.0)

Target: T3, cynomolgus monkey SIRPγ on CHO cells (cynomolgus monkey, UniProt Q9P1W8 29-386 (human entry))
T3 construct: also called Cyno SIRPγ CHO
T3 chain: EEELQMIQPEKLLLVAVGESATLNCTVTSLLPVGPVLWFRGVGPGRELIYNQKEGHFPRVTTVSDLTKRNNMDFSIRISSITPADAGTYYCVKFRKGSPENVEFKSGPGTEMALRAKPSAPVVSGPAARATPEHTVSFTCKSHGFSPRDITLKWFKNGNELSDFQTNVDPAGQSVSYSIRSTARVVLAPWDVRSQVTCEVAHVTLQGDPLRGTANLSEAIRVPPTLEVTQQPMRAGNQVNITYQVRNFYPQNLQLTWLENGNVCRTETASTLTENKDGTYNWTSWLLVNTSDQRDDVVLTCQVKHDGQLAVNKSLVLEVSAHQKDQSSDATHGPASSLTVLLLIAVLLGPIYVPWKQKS
Experiment: flow cytometry, myc-scFv PPE
Description: (§1) Selected antibodies were tested for binding to stably transfected human SIRPγ, SIRPαV1, or SIRPβ1 (co-transfected with DAP12) Chinese hamster ovary (CHO) cells via flow cytometry. A titration of select antibodies was added to the cells and detected using a fluorescently labelled secondary anti-rat IgG antibody or anti-human IgG antibody. Graphs depict the median fluorescence intensity (MFI) at each concentration. FIGS. 5A and 5G show the binding curves of select antibodies to human SIRPγ, cynomolgus monkey SIRPγ, human SIRPα, cynomolgus monkey SIRPα, human SIRPβ1, or cynomolgus monkey SIRPβl-expressing CHO cells detected using an anti-rat IgG antibody. FIGS. 5B-5F and 5H-5L show the binding curves of select antibodies to human SIRPγ, cynomolgus monkey SIRPγ, human SIRPα, cynomolgus monkey SIRPα, human SIRPβ1, or cynomolgus monkey SIRPβ1-expressing CHO cells detected using an anti-human IgG antibody. […] For select antibodies, each myc-tagged SIRPγ scFv antibody as crude PPE was incubated with each of the SIRP-expressing cell lines stated above along with the parental CHO-K1 cell line. […] Fold change value <2.0 is considered a non-binder.

Binder	MFI fold change over parental CHO
B1	16.7 fold
B2	37.7 fold
B3	18.8 fold
B4	9.25 fold
B5	18.2 fold
B6	16.3 fold
B7	39.5 fold
B8	26.7 fold
B9	6.94 fold

Target: T4, human SIRPγ on stably transfected CHO cells (human, UniProt Q9P1W8 29-387)
T4 construct: also called Human SIRPγ CHO
Experiment: flow cytometry, myc-scFv PPE
Description: as §1

T4 sequence (Q9P1W8 29-387 limits assumed): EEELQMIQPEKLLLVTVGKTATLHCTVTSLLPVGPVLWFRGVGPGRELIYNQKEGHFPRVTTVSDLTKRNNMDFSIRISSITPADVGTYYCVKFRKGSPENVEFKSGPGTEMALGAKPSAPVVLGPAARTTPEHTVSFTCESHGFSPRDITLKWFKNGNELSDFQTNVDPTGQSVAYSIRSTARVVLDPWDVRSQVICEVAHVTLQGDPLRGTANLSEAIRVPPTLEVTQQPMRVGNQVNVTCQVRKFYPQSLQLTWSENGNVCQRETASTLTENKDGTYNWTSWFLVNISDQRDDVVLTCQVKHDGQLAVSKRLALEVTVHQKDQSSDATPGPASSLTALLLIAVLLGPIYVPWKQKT

Binder	MFI fold change over parental CHO
B1	14.8 fold
B2	42.4 fold
B3	20 fold
B4	12.1 fold
B5	24.3 fold
B6	14.7 fold
B7	16.4 fold
B8	16 fold
B9	5.97 fold

Target: T1, cynomolgus monkey SIRPα on CHO cells
Experiment: flow cytometry, CHO transfectants, anti-human IgG
Description: as §1

Binder	binding result
B10	no binding (tested: about 20 µg/mL)

Target: T2, human SIRPβ1 on CHO cells …
Experiment: flow cytometry, CHO transfectants, anti-human IgG
Description: as §1

Binder	binding result
B10	no binding (tested: about 20 µg/mL)

Target: T5, human SIRPγ-His monomer protein (human, UniProt Q9P1W8 29-360)
T5 construct: also called hSIRPγ
Experiment: BLI Octet, V5-scFv PPE captured, SIRP-His 500 nM

T5 sequence (Q9P1W8 29-360 limits assumed): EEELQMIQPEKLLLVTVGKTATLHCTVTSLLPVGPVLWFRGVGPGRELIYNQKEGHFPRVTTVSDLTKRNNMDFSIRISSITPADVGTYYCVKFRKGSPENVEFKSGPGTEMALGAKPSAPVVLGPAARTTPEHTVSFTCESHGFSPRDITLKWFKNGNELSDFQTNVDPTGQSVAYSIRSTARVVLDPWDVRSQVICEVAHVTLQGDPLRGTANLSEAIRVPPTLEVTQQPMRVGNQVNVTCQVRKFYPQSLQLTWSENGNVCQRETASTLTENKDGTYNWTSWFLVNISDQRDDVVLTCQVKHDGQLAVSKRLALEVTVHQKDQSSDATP

Binder	kdis
B1	0.001 to 0.01 s⁻¹
B2	< 0.001 s⁻¹
B3	0.001 to 0.01 s⁻¹
B4	0.001 to 0.01 s⁻¹
B5	> 0.01 s⁻¹
B6	> 0.01 s⁻¹
B7	0.001 to 0.01 s⁻¹
B8	> 0.01 s⁻¹
B9	> 0.01 s⁻¹
